T1: BCMA antigen (UniProt Q02223 1-54, limits assumed)
T1 construct: also called wild type BCMA
T1 sequence (looked up): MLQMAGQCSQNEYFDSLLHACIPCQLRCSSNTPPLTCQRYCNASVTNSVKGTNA


molecular target: T1, BCMA antigen; test: SPR (Biacore T200), IgG captured on a protein A chip, huBCMA as analyte, 1:1 Binding model, 25 C; same panel as in FIG. 11
Protocol: (§1) To test the affinity of BCMA F6G variants their binding domains were expressed as IgGs and captured to a protein A chip. BCMA antigen was flowed over the chip at […] concentrations. Experiment was run on Biacore T200. […] The CARs were expressed as IgGs and captured to a protein A chip. BCMA antigen was flowed over the chip at […]. concentrations. Experiment was run on Biacore T200.

Molecule | Kd [nM] | koff [s⁻¹] | kon [M⁻¹ s⁻¹]
F6Gvar2 (antibody, V domains shown) VH: QVQLVQSGAEVKKPGASVKVSCKASGYTFTGYYMQWVRQAPGQGLEWMGWMNPISGNTGYAQKFQGRVTMTRNTSISTAYMELSSLRSEDTAVYYCARAQWEPLDYWGQGTLVTVSS VL: SYELTQPPSVSVSPGQTARITCSGDALPKKYTYWYQQKSGQAPVLVIYYDTKRPSGIPERFSGSSSGTMATLTISGAQVEDEADYYCLSTHPAGQESVFGGGTKLTVLG | 2.35 | 0.000325 | 138000

molecular target: T1, BCMA antigen; test: SPR (Biacore T200), IgG captured on a protein A chip, huBCMA as analyte, 1:1 Binding model, 25 C
Protocol: as §1

Molecule | Kd [nM] | koff [s⁻¹] | kon [M⁻¹ s⁻¹]
Bb2121 huIgG1 (antibody) | 1.67 | 0.00484 | 2.89e+06
F6Gvar2 (antibody, V domains shown) VH: QVQLVQSGAEVKKPGASVKVSCKASGYTFTGYYMQWVRQAPGQGLEWMGWMNPISGNTGYAQKFQGRVTMTRNTSISTAYMELSSLRSEDTAVYYCARAQWEPLDYWGQGTLVTVSS VL: SYELTQPPSVSVSPGQTARITCSGDALPKKYTYWYQQKSGQAPVLVIYYDTKRPSGIPERFSGSSSGTMATLTISGAQVEDEADYYCLSTHPAGQESVFGGGTKLTVLG | 2.35 | 0.000325 | 138000
F6G huIgG1 (antibody, V domains shown, also called germline F6G expressed as human IgG1) VH: QVQLVQSGAEVKKPGASVKVSCKASGYTFTGYYMHWVRQAPGQGLEWMGWMNPNSGNTGYAQKFQGRVTMTRNTSISTAYMELSSLRSEDTAVYYCARAQWEPLDYWGQGTLVTVSS VL: SYELTQPPSVSVSPGQTARITCSGDALPKKYTYWYQQKSGQAPVLVIYEDTKRPSGIPERFSGSSSGTMATLTISGAQVEDEADYYCLSTDPTGQESVFGGGTKLTVLG | 97.8 | 0.0197 | 201000
F6Gvar3 (antibody, V domains shown) VH: QVQLVQSGAEVKKPGASVKVSCKASGYTFTGYYMQWVRQAPGQGLEWMGWMNPISGNTGYAQKFQGRVTMTRNTSISTAYMELSSLRSEDTAVYYCARAQWEPLDYWGQGTLVTVSS VL: SYELTQPPSVSVSPGQTARITCSGDALPKKYTYWYQQKSGQAPVLVIYYDTKRPSGIPERFSGSSSGTMATLTISGAQVEDEADYYCLSTNPTGHESVFGGGTKLTVLG | 2.12 | 0.000317 | 150000

molecular target: T1, BCMA antigen; test: flow cytometry, iNKT cells transiently transfected with BCMA CAR-RFP mRNA and stained with soluble BCMA-APC, two donors
Protocol: INKT cells from two donors were transiently transfected with F6G variants and anti-BCMA-CAR iNKT cell-mediated killing of tumor cells were tested. Flow cytometry analysis of RFP expression to show CAR expression and antigen binding with BCMA-APC in BCMA-CAR iNKTs (FIGS. 13A-13C). The level of BCMA expression on each tumor cell line was assessed by flow cytometry where left peak show isotype staining and right peak show BCMA expression (FIG. 13D). iNKT cells expressing anti-BCMA CAR (as shown in FIG. 13A) were co-cultured with tumor cell lines endogenously expressing BCMA or K562 for 24 hrs at 3 different effector-to-target ratios. After 24 hr co-coculture, cytotoxicity assay was analyzed by flow cytometry for percentage of dead target cells (FIG. 13E), percentage of CD69/CD25 co-expressing iNKT cells (FIG. 13F) and percentage of 4-1BB expressing iNKT cells (FIG. 13G).

Molecule | binding result
F6G-Var1 (other, also called F6G-Var1 CAR on iNKT cells (transient, CAR-RFP mRNA)) CAR polypeptide: QVQLVQSGAEVKKPGASVKVSCKASGYTFTGYYMHWVRQAPGQGLEWMGWMNPNSGNTGYAQKFQGRVTMTRNTSISTAYMELSSLRSEDTAVYYCARAQWEPLDYWGQGTLVTVSSGGGGSGGGGSGGGASSYELTQPPSVSVSPGQTARITCSGDALPKKYTYWYQQKSGQAPVLVIYYDTKRPSGIPERFSGSSSGTMATLTISGAQVEDEADYYCLSTDPTGQESVFGGGTKLTVLGQPAAATTTPAPRPPTPAPTIASQPLSLRPEACRPAAGGAVHTRGLDFACDIYIWAPLAGTCGVLLLSLVITLYCKRGRKKLLYIFKQPFMRPVQTTQEEDGCSCRFPEEEEGGCELRVKFSRSADAPAYQQGQNQLYNELNLGRREEYDVLDKRRGRDPEMGGKPRRKNPQEGLYNELQKDKMAEAYSEIGMKGERRRGKGHDGLYQGLSTATKDTYDALHMQALPPR | binds
F6G-Var6 (other, also called F6G-Var6 CAR on iNKT cells (transient, CAR-RFP mRNA)) CAR polypeptide: QVQLVQSGAEVKKPGASVKVSCKASGYTFTEYYMKWVRQAPGQGLEWMGWMNPNTGKTGYAQKFQGRVTMTRNTSISTAYMELSSLRSEDTAVYYCARAQWEPLDYWGQGTLVTVSSGGGGSGGGGSGGGASSYELTQPPSVSVSPGQTARITCSGDALPKKYTYWYQQKSGQAPVLVIYYDTKRPSGIPERFSGSSSGTMATLTISGAQVEDEADYYCLSTDPTGQESVFGGGTKLTVLGQPAAATTTPAPRPPTPAPTIASQPLSLRPEACRPAAGGAVHTRGLDFACDIYIWAPLAGTCGVLLLSLVITLYCKRGRKKLLYIFKQPFMRPVQTTQEEDGCSCRFPEEEEGGCELRVKFSRSADAPAYQQGQNQLYNELNLGRREEYDVLDKRRGRDPEMGGKPRRKNPQEGLYNELQKDKMAEAYSEIGMKGERRRGKGHDGLYQGLSTATKDTYDALHMQALPPR | binds
F6G (other, also called F6G CAR on iNKT cells (transient, CAR-RFP mRNA)) CAR polypeptide: QVQLVQSGAEVKKPGASVKVSCKASGYTFTGYYMHWVRQAPGQGLEWMGWMNPNSGNTGYAQKFQGRVTMTRNTSISTAYMELSSLRSEDTAVYYCARAQWEPLDYWGQGTLVTVSSGGGGSGGGGSGGGASSYELTQPPSVSVSPGQTARITCSGDALPKKYTYWYQQKSGQAPVLVIYEDTKRPSGIPERFSGSSSGTMATLTISGAQVEDEADYYCLSTDPTGQESVFGGGTKLTVLGQPAAATTTPAPRPPTPAPTIASQPLSLRPEACRPAAGGAVHTRGLDFACDIYIWAPLAGTCGVLLLSLVITLYCKRGRKKLLYIFKQPFMRPVQTTQEEDGCSCRFPEEEEGGCELRVKFSRSADAPAYQQGQNQLYNELNLGRREEYDVLDKRRGRDPEMGGKPRRKNPQEGLYNELQKDKMAEAYSEIGMKGERRRGKGHDGLYQGLSTATKDTYDALHMQALPPR | binds
F6G-Var5 (other, also called F6G-Var5 CAR on iNKT cells (transient, CAR-RFP mRNA)) CAR polypeptide: QVQLVQSGAEVKKPGASVKVSCKASGYTFTGYYMHWVRQAPGQGLEWMGWMNPNSGNTGYAQKFQGRVTMTRNTSISTAYMELSSLRSEDTAVYYCARAQWEPLDYWGQGTLVTVSSGGGGSGGGGSGGGASSYELTQPPSVSVSPGQTARITCSGDALPKKYTYWYQQKSGQAPVLVIYYDTKRPSGIPERFSGSSSGTMATLTISGAQVEDEADYYCLSTNPTGHESVFGGGTKLTVLGQPAAATTTPAPRPPTPAPTIASQPLSLRPEACRPAAGGAVHTRGLDFACDIYIWAPLAGTCGVLLLSLVITLYCKRGRKKLLYIFKQPFMRPVQTTQEEDGCSCRFPEEEEGGCELRVKFSRSADAPAYQQGQNQLYNELNLGRREEYDVLDKRRGRDPEMGGKPRRKNPQEGLYNELQKDKMAEAYSEIGMKGERRRGKGHDGLYQGLSTATKDTYDALHMQALPPR | binds
F6G-Var3 (other, also called F6G-Var3 CAR on iNKT cells (transient, CAR-RFP mRNA)) CAR polypeptide: QVQLVQSGAEVKKPGASVKVSCKASGYTFTGYYMQWVRQAPGQGLEWMGWMNPISGNTGYAQKFQGRVTMTRNTSISTAYMELSSLRSEDTAVYYCARAQWEPLDYWGQGTLVTVSSGGGGSGGGGSGGGASSYELTQPPSVSVSPGQTARITCSGDALPKKYTYWYQQKSGQAPVLVIYYDTKRPSGIPERFSGSSSGTMATLTISGAQVEDEADYYCLSTNPTGHESVFGGGTKLTVLGQPAAATTTPAPRPPTPAPTIASQPLSLRPEACRPAAGGAVHTRGLDFACDIYIWAPLAGTCGVLLLSLVITLYCKRGRKKLLYIFKQPFMRPVQTTQEEDGCSCRFPEEEEGGCELRVKFSRSADAPAYQQGQNQLYNELNLGRREEYDVLDKRRGRDPEMGGKPRRKNPQEGLYNELQKDKMAEAYSEIGMKGERRRGKGHDGLYQGLSTATKDTYDALHMQALPPR | binds
F6G-Var4 (other, also called F6G-Var4 CAR on iNKT cells (transient, CAR-RFP mRNA)) CAR polypeptide: QVQLVQSGAEVKKPGASVKVSCKASGYTFTGYYMHWVRQAPGQGLEWMGWMNPNSGNTGYAQKFQGRVTMTRNTSISTAYMELSSLRSEDTAVYYCARAQWEPLDYWGQGTLVTVSSGGGGSGGGGSGGGASSYELTQPPSVSVSPGQTARITCSGDALPKKYTYWYQQKSGQAPVLVIYYDTKRPSGIPERFSGSSSGTMATLTISGAQVEDEADYYCLSTHPAGQESVFGGGTKLTVLGQPAAATTTPAPRPPTPAPTIASQPLSLRPEACRPAAGGAVHTRGLDFACDIYIWAPLAGTCGVLLLSLVITLYCKRGRKKLLYIFKQPFMRPVQTTQEEDGCSCRFPEEEEGGCELRVKFSRSADAPAYQQGQNQLYNELNLGRREEYDVLDKRRGRDPEMGGKPRRKNPQEGLYNELQKDKMAEAYSEIGMKGERRRGKGHDGLYQGLSTATKDTYDALHMQALPPR | binds
